Target: T1, IL-36a (human, UniProt Q9UHA7 1-158, limits assumed)
T1 sequence (looked up): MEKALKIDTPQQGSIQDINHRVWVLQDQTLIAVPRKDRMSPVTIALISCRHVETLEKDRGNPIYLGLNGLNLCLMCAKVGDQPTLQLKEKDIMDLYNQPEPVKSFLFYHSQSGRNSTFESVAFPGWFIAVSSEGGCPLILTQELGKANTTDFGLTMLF
Test: CDI HuProt native protein microarray
Method: To confirm specificity to IL-38, several lead candidate antibodies (CD1-M3, CD1-M8, NZB-M8) were analyzed in a High-Spec Cross-reactivity Assay using native HuProt arrays (CDI Laboratories). […] of antibody was incubated overnight in a cold room, washed, and probed with anti-human secondary antibodies. Fluorescence intensity (F635) as an indicator of binding was measured for each spot. CDI software quantified the specificity of the antibody to each spot based on a Z-score. Z-score is defined as [F635−(Average F635 on array)]/(Standard deviation of F635 on array). S-score is defined as the difference between the Z-score of a given protein and the Z-score of the next highest protein.

B1: CD1-M3 (antibody, V domains shown)
VH: EVQLQQSGPELVKPGASVKIPCKASGYTFTDYNMDWVKQSHGKSLEWIGDINPNNGGTIYNQKFKGKATLTVDKSSSTAYMELRSLTSEDTAVYYCSRPYYGYFAYWGQGTLVTVSA
VL: DVVMTQSPLSLPVSLGDQASISCRSSQSLVHSHENTFLHWYLQKPGQSPKLLIYRVSNRFSGVPDRFSGSGSGTDFTLKISRVEAEDLGVYFCSQSTHVPLTFGAGTKLELK
notes: Mouse monoclonal from a hybridoma of a CD-1 mouse immunized with full length recombinant IL-38
- binding result: no binding
